Data published in US20030145347.

How the values were obtained:
[1] = molecular target: soybean thioredoxin prep without S-tag (recombinant, expressed in E. coli from pNOV4112, S-Tag removed by thrombin cleavage)
[2] = molecular target: soybean thioredoxin with S-tag (recombinant, expressed in E. coli from pNOV4112)
[3] = molecular target: rice thioredoxin with S-tag (recombinant, expressed in E. coli from pNOV4113)
[4] = molecular target: wheat thioredoxin with S-tag (recombinant, expressed in E. coli from pNOV4114)

B1: E. coli thioredoxin reductase (T-7915, Sigma, St. Louis, Mo.) (protein)
chain: GTTKHSKLLILGSGPAGYTAAVYAARANLQPVLITGMEKGGQLTTTTEVENWPGDPNDLTGPLLMERMHEHATKFETEIIFDHINKVDLQNRPFRLNGDNGEYTCDALIIATGASARYLGLPSEEAFKGRGVSACATCDGFFYRNQKVAVIGGGNTAVEEALYLSNIASEVHLIHRRDGFRAEKILIKRLMDKVENGNIILHTNRTLEEVTGDQMGVTGVRLRDTQNSDNIESLDVAGLFVAIGHSPNTAIFEGQLELENGYIKVQSGIHGNATQTSIPGVFAAGDVMDHIYRQAITSAGTGCMAALDAERYLDGLADAK
- reduction of thioredoxin, DTNB assay [1]: can reduce soybean thioredoxin with and without the S-tag
- reduction of thioredoxin, DTNB assay [2]: can reduce soybean thioredoxin with and without the S-tag
- reduction of thioredoxin, DTNB assay [3]: can also reduce rice thioredoxin
- reduction of thioredoxin, DTNB assay [4]: Wheat thioredoxin can be reduced by E. coli thioredoxin reductase
